Kd data for one substance are collected here from PMC10602870.

What all share (assay): native gel or EMSA; binding titrations of 80N0 nucleosomes with Chd1 in the presence of AMP-PNP and salmon sperm competitor DNA; observed (apparent) Kd; read from gels (Supplementary Figure S6)
A general note: Mobility shift assays separate free from complexed probe on a gel.

The target in assay [1] is 80N0 Widom 601 nucleosome with pairs of abasic sites at both SHL2.7 sites (SHL+/-2.7, 27 bp from the dyad), Xenopus laevis histone octamer with H2B(S53C) (Xenopus laevis).
Assay [2] deals with 80N0 Widom 601 nucleosome with 2 bp DNA mismatches at both SHL2.7 sites (SHL+/-2.7, 27 bp from the dyad), Xenopus laevis histone octamer with H2B(S53C) (Xenopus laevis).
In assay [3] the target is 80N0 Widom 601 nucleosome with 2 bp DNA mismatches at both SHL2 sites (SHL+/-2, 20 bp from the dyad), Xenopus laevis histone octamer with H2B(S53C) (Xenopus laevis).
The target in assay [4] is 80N0 nucleosome, canonical Widom 601 DNA, Xenopus laevis histone octamer with H2B(S53C) (Xenopus laevis).
In assay [5] the target is 80N0 Widom 601 nucleosome with pairs of abasic sites at both SHL2 sites (SHL+/-2, 20 bp from the dyad), Xenopus laevis histone octamer with H2B(S53C) (Xenopus laevis).

As for “Chd1 chromatin remodeler (from UniProt P32657 1-1468) (enzyme)”, the Kd is 68 nM in assay [1]; 22.2 nM in assay [2]; 450 nM in assay [3]; 24 nM in assay [4]; 10000 nM in assay [5].
